We go through 3 molecules from patent US20130177500A1 (TRUSTEES OF BOSTON UNIVERSITY, published 2013).

Experiment [1] has as its target T1, human dual endothelin-1/VEGF signal peptide receptor (hDEspR), on cells and tissue (human) (UniProt B0L3A2).
T1 sequence: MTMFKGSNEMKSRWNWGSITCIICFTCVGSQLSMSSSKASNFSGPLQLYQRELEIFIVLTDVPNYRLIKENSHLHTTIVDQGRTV
Kind of experiment: cell-based or functional assay.

In experiment [2] the target is T1, human dual endothelin-1/VEGF signal peptide receptor (hDEspR), on cells and tissue (human). Kind of experiment: isotype-antibody microbubbles on HUVECs, 800× MB:cell ratio, microscopy (negative control).
Experiment [3] deals with T2, human dual endothelin-1/VEGF signal peptide receptor (hDEspR), on cells and tissue (human, UniProt B0L3A2 1-85).
T2 sequence: T1 sequence
Kind of experiment: cell-based or functional assay.

For experiment [4], the target named is T3, antigenic hDEspR 9-aa peptide (NH2-terminal 9 amino acids of hDEspR) (human).
T3 construct: Free, unconjugated peptide coated on ELISA wells; The KLH conjugate was used only for immunisation; also called DEspR(1-9); free antigenic peptide
T3 peptide: MTMFKGSNE
Kind of experiment: indirect ELISA on the plate-coated antigenic 9-aa hDEspR peptide; two-fold serial dilutions of hybridoma supernatant holding mAb at 1 µg/ml (1 = 1/2 ... 12 = 1/4096); OD450. (In an ELISA, binding on a coated surface is turned into a signal by an enzyme label.)

Consider “endothelin-1 (from UniProt P05305 53-73) (ligand)”, for which, in experiment [1], the % CFC, BRCA1 S1497 (Kinex antibody microarray, 30 min, 10 nM ligand) is 32 % CFC; the % CFC, CDK1/2 T14/Y15 (Kinex antibody microarray, 30 min, 10 nM ligand) was found to be 53 % CFC; the % CFC, CDK1/2 Y15 (Kinex antibody microarray, 30 min, 10 nM ligand) came to 281 % CFC; the % CFC, ERK1/2 T202 + Y204; T185 + Y187 (Kinex antibody microarray, 30 min, 10 nM ligand) was 135 % CFC. In experiment [1], the % CFC, FAK Panspecific (Kinex antibody microarray, 30 min, 10 nM ligand) is 205 % CFC; the % CFC, FAK S722 (Kinex antibody microarray, 30 min, 10 nM ligand) is 55 % CFC; the % CFC, FAK S732 (Kinex antibody microarray, 30 min, 10 nM ligand) is 62 % CFC; the % CFC, Met Panspecific (Kinex antibody microarray, 30 min, 10 nM ligand) is 384 % CFC. Further, in experiment [1], the % CFC, PCNA Panspecific (Kinex antibody microarray, 30 min, 10 nM ligand) was -47 % CFC; the % CFC, PKCa T638/T641 (Kinex antibody microarray, 30 min, 10 nM ligand) is 137 % CFC; the % CFC, PKCe Panspecific (Kinex antibody microarray, 30 min, 10 nM ligand) came to 103 % CFC; the % CFC, Raf1 S259 (Kinex antibody microarray, 30 min, 10 nM ligand) came out at 12 % CFC. In experiment [1], this molecule had a % CFC, SHP2 S576 (Kinex antibody microarray, 30 min, 10 nM ligand) of 14 % CFC; a % CFC, STAT1 S727 (Kinex antibody microarray, 30 min, 10 nM ligand) of 86 % CFC; a % CFC, STAT1 Y701 (Kinex antibody microarray, 30 min, 10 nM ligand) of 95 % CFC; a % CFC, STAT3 S727 (Kinex antibody microarray, 30 min, 10 nM ligand) of 133 % CFC. Besides, in experiment [1], the % CFC, Shc1 or ShcA Y349, Y350 (Kinex antibody microarray, 30 min, 10 nM ligand) came out at 9 % CFC; the % CFC, Smad 1/5/9 S463 + S465/S465 + S467 (Kinex antibody microarray, 30 min, 10 nM ligand) was found to be 18 % CFC; the % CFC, Src Y418 (Kinex antibody microarray, 30 min, 10 nM ligand) was -11 % CFC; the % CFC, Src Y529 (Kinex antibody microarray, 30 min, 10 nM ligand) was -20 % CFC.
Consider “isotype-antibody control microbubbles (MBC)”, for which the % of HUVECs with bound MBs in experiment [2] was 6.8%.

B1: anti-hDEspR 7C5B2 monoclonal antibody (antibody, IgG2b, V domains shown)
VH: QVQLKESGPGLVAPSQSLSITCTVSGFSLTSYDISWIRQPPGKGLEWLGVIWTGGGTNYNSAFMSRLSISKDNSKSQVFLKMNSLQTDDTAIYYCVRDRDYDGWYFDVWGAGTTVTVSS
VL: DVLMTQTPLSLPVSLGDQASISCRSSQSIVHSNGNTYLEWYLQKPGQSPKLLIYKVSNRFSGVPDRFSGSGSGTDFTLKISRVEAEDLGVYYCFQGSHVPYTFGGGTKLEIK
notes: Tested as hybridoma supernatant and as purified antibody; also called 7C5B2 antibody; 7C5B2 anti-DEspR antibody
With B1, in experiment [3], the “EC50, inhibition of MDA-MB-231 tumor cell invasiveness (Matrigel invasion assay)” value came out at 3.55 nM and the “EC50, inhibition of total tube length per well (HUVEC tube formation assay)” value came to 4.34 nM. Further, the binding result in experiment [4] is given as “binds”.
